Experimental data from patent US20220162649A1, “NOVEL NUCLEIC ACID MODIFIERS” (THE BROAD INSTITUTE, INC., priority 2019, published 2022).
Changes are numbered by the printed parent chain. Names and notes keep the numbering of the source.

B1: SaCas9 T787A: SaCas9 phosphate lock loop mutant (protein, UniProt J7RUA5 1-1053, looked up, variant T787A)
CRISPR-associated …: MKRNYILGLDIGITSVGYGIIDYETRDVIDAGVRLFKEANVENNEGRRSKRGARRLKRRRRHRIQRVKKLLFDYNLLTDHSELSGINPYEARVKGLSQKLSEEEFSAALLHLAKRRGVHNVNEVEEDTGNELSTKEQISRNSKALEEKYVAELQLERLKKDGEVRGSINRFKTSDYVKEAKQLLKVQKAYHQLDQSFIDTYIDLLETRRTYYEGPGEGSPFGWKDIKEWYEMLMGHCTYFPEELRSVKYAYNADLYNALNDLNNLVITRDENEKLEYYEKFQIIENVFKQKKKPTLKQIAKEILVNEEDIKGYRVTSTGKPEFTNLKVYHDIKDITARKEIIENAELLDQIAKILTIYQSSEDIQEELTNLNSELTQEEIEQISNLKGYTGTHNLSLKAINLILDELWHTNDNQIAIFNRLKLVPKKVDLSQQKEIPTTLVDDFILSPVVKRSFIQSIKVINAIIKKYGLPNDIIIELAREKNSKDAQKMINEMQKRNRQTNERIEEIIRTTGKENAKYLIEKIKLHDMQEGKCLYSLEAIPLEDLLNNPFNYEVDHIIPRSVSFDNSFNNKVLVKQEENSKKGNRTPFQYLSSSDSKISYETFKKHILNLAKGKGRISKTKKEYLLEERDINRFSVQKDFINRNLVDTRYATRGLMNLLRSYFRVNNLDVKVKSINGGFTSFLRRKWKFKKERNKGYKHHAEDALIIANADFIFKEWKKLDKAKKVMENQMFEEKQAESMPEIETEQEYKEIFITPHQIKHIKDFKDYKYSHRVDKKPNRELINDALYSTRKDDKGNTLIVNNLNGLYDKDNDKLKKLINKSPEKLLMYHHDPQTYQKLKLIMEQYGDEKNPLYKYYEETGNYLTKYSKKDNGPVIKKIKYYGNKLNAHLDITDDYPNSRNKVVKLSLKPYRFDVYLDNGVYKFVTVKNLDVIKKENYYEVNSKCYEEAKKLKKISNQAEFIASFYNNDLIKINGELYRVIGVNNDLLNRIEVNMIDITYREYLENMNDKRPPRIIKTIASKTQSIKKYSTDILGNLYEVKSKKHPQIIKKG
B2: H701A: SaCas9 RuvC catalytic residue mutant (protein, UniProt J7RUA5 1-1053, looked up, variant H701A)
CRISPR-associated …: B1 CRISPR-associated … with H701A, A787T
B3: D704A: SaCas9 RuvC catalytic residue mutant (protein, UniProt J7RUA5 1-1053, looked up, variant D704A)
CRISPR-associated …: B1 CRISPR-associated … with D704A, A787T
B4: N580A: SaCas9 HNH catalytic residue mutant (protein, UniProt J7RUA5 1-1053, looked up, variant N580A)
CRISPR-associated …: B1 CRISPR-associated … with N580A, A787T
B5: E477A: SaCas9 RuvC catalytic residue mutant (protein, UniProt J7RUA5 1-1053, looked up, variant E477A)
CRISPR-associated …: B1 CRISPR-associated … with E477A, A787T
B6: D556A: SaCas9 HNH catalytic residue mutant (protein, UniProt J7RUA5 1-1053, looked up, variant D556A)
CRISPR-associated …: B1 CRISPR-associated … with D556A, A787T
B7: D10A: SaCas9 RuvC catalytic residue mutant (protein, UniProt J7RUA5 1-1053, looked up, variant D10A)
CRISPR-associated …: B1 CRISPR-associated … with D10A, A787T
B8: H557A: SaCas9 HNH catalytic residue mutant (protein, UniProt J7RUA5 1-1053, looked up, variant H557A)
CRISPR-associated …: B1 CRISPR-associated … with H557A, A787T

Tested on: target DNA
Assay: not given
Details: SaCas9 mutants; cited from earlier work

Molecule | DNA cleavage activity, in words
B1 | reduced DNA cleavage activity
B2 | almost no DNA cleavage activities
B3 | almost no DNA cleavage activities
B4 | almost no DNA cleavage activities
B5 | almost no DNA cleavage activities
B6 | almost no DNA cleavage activities
B7 | almost no DNA cleavage activities
B8 | almost no DNA cleavage activities

Tested on: NHEJ pathway
Assay: HiBiT assay of HDR enhancement by small-molecule NHEJ pathway inhibitors
Format: cell-based
Details: not given

Molecule | HDR enhancement in the HiBiT assay
O=c1cc(N2CCOCC2)oc2c(-c3cccc4c3sc3ccccc34)cccc12 [KU-57788] | enhanced HDR enhancement
CCN1CCN(CC(=O)Nc2ccc(-c3cccc4c(=O)cc(N5CCOCC5)oc34)c3sc4ccccc4c23)CC1 [KU-0060648] | enhanced HDR enhancement
